From the supplement of paper PMC9112550, “Optimization of the antimicrobial peptide Bac7 by deep mutational scanning” (BMC Biology, 2022)

Tested on: Escherichia coli TOP10
Assay: shrunken log2 fold change of peptide-encoding DNA abundance (4.5 h post-induction vs induction); higher = less antimicrobial activity (less host growth inhibition)
Conditions: time post-induction: 4.5 h; library: site-saturation at positions 5, 18, 19, 20
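Note: peptides expressed intracellularly from a pBAD plasmid library in pooled LB shake-flask culture, induced with 0.3% L-arabinose, DNA abundance read by NGS, three biological replicates, DESeq2 with apeglm shrinkage.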

Sequence | shrunken log2 fold change
RRIRKRPPRLPRPRPRPACQPRP | 0.0289
RRIRNRPPRLPRPRPRPQIPPRP | 0.0549
RRIRFRPPRLPRPRPRPRYHPRP | -0.295
RRIRWRPPRLPRPRPRPTDGPRP | 0.32
RRIRERPPRLPRPRPRPSCCPRP | 0.294
RRIRCRPPRLPRPRPRPQGFPRP | -0.0235
RRIRIRPPRLPRPRPRPYKSPRP | -1.14
RRIRYRPPRLPRPRPRPRTCPRP | -0.134
RRIRPRPPRLPRPRPRPNYYPRP | -0.468
RRIRGRPPRLPRPRPRPWGTPRP | 0.0721
RRIRHRPPRLPRPRPRPVFKPRP | 0.126
RRIRQRPPRLPRPRPRPIYPPRP | -0.121
RRIRCRPPRLPRPRPRPNVIPRP | -0.374
RRIRWRPPRLPRPRPRPNATPRP | 0.736
RRIRFRPPRLPRPRPRPYNGPRP | -1.47
RRIRVRPPRLPRPRPRPSERPRP | -0.0442
RRIRSRPPRLPRPRPRPLTDPRP | -0.162
RRIRHRPPRLPRPRPRPKMAPRP | -0.0953
RRIRGRPPRLPRPRPRPVVLPRP | 0.4
RRIRHRPPRLPRPRPRPWFKPRP | 0.0141
RRIRLRPPRLPRPRPRPYWEPRP | -0.0613
RRIRQRPPRLPRPRPRPPPQPRP | 0.712
RRIRRRPPRLPRPRPRPSTSPRP | 0.0625

Sequence | shrunken log2 fold change
RRIRYRPPRLPRPRPRPGRWPRP | 0.475
RRIRVRPPRLPRPRPRPDGRPRP | 0.149
RRIRDRPPRLPRPRPRPMACPRP | -0.00146
RRIRTRPPRLPRPRPRPGAGPRP | 0.286
RRIRYRPPRLPRPRPRPCSYPRP | -0.0018
RRIRSRPPRLPRPRPRPETHPRP | 0.0531
RRIRDRPPRLPRPRPRPDDNPRP | 0.153
RRIRMRPPRLPRPRPRPDNYPRP | -0.0552
RRIRRRPPRLPRPRPRPARYPRP | 0.317
RRIRMRPPRLPRPRPRPCLVPRP | 0.0451
RRIRNRPPRLPRPRPRPMHIPRP | -0.168
RRIRARPPRLPRPRPRPFEDPRP | 0.0795
RRIRSRPPRLPRPRPRPRVEPRP | 0.183
RRIRQRPPRLPRPRPRPVWMPRP | -0.00887
RRIRARPPRLPRPRPRPDASPRP | 1.94
RRIRWRPPRLPRPRPRPHWVPRP | 0.0436
RRIRHRPPRLPRPRPRPDQQPRP | 0.0104
RRIRLRPPRLPRPRPRPDVIPRP | -0.161
RRIRFRPPRLPRPRPRPLARPRP | -0.0473
RRIRHRPPRLPRPRPRPWKHPRP | -0.0222
RRIRCRPPRLPRPRPRPGVPPRP | -0.3
RRIRMRPPRLPRPRPRPSADPRP | 3.21
RRIRMRPPRLPRPRPRPVFKPRP | -0.111

Sequence | shrunken log2 fold change
RRIRYRPPRLPRPRPRPAEMPRP | -1.02
RRIRTRPPRLPRPRPRPPRGPRP | 0.607
RRIRTRPPRLPRPRPRPTMEPRP | -0.489
RRIRIRPPRLPRPRPRPFQCPRP | 0.00367
RRIRHRPPRLPRPRPRPALQPRP | 0.0339
RRIRQRPPRLPRPRPRPTMPPRP | 0.2
RRIRMRPPRLPRPRPRPCFNPRP | -0.000544
RRIRARPPRLPRPRPRPNCRPRP | 0.0806
RRIRERPPRLPRPRPRPETDPRP | -0.0989
RRIRQRPPRLPRPRPRPYENPRP | 0.00377
RRIRWRPPRLPRPRPRPVMVPRP | 0.0467
RRIRKRPPRLPRPRPRPGEWPRP | -0.0202
RRIRVRPPRLPRPRPRPVRRPRP | 2.95
RRIRVRPPRLPRPRPRPSSFPRP | -0.423
RRIRPRPPRLPRPRPRPKMFPRP | 0.149
RRIRERPPRLPRPRPRPKPGPRP | 0.469
RRIRLRPPRLPRPRPRPKEFPRP | -0.0126
RRIRLRPPRLPRPRPRPHSSPRP | 0.0594
RRIRARPPRLPRPRPRPGREPRP | 0.388
RRIRCRPPRLPRPRPRPIYAPRP | -0.281
RRIRMRPPRLPRPRPRPHQKPRP | -0.0408
RRIRARPPRLPRPRPRPARMPRP | 0.724
RRIRLRPPRLPRPRPRPHAEPRP | -0.203

Sequence | shrunken log2 fold change
RRIRLRPPRLPRPRPRPVSVPRP | -0.118
RRIRTRPPRLPRPRPRPTQRPRP | 0.11
RRIRGRPPRLPRPRPRPHGPPRP | 0.426
RRIRPRPPRLPRPRPRPDTVPRP | -0.207
RRIRYRPPRLPRPRPRPVILPRP | -0.0444
RRIRWRPPRLPRPRPRPMSWPRP | 0.0971
RRIRHRPPRLPRPRPRPKCHPRP | -0.201
RRIRYRPPRLPRPRPRPQSHPRP | -0.416
RRIRERPPRLPRPRPRPSECPRP | -0.592
RRIRLRPPRLPRPRPRPREYPRP | 0.289
RRIRVRPPRLPRPRPRPPMHPRP | 0.245
RRIRKRPPRLPRPRPRPCPDPRP | -0.0203
RRIRCRPPRLPRPRPRPGTQPRP | 0.00157
RRIRRRPPRLPRPRPRPDTPPRP | 0.342
RRIRVRPPRLPRPRPRPEDNPRP | -0.184
RRIRLRPPRLPRPRPRPCEQPRP | 0.0377
RRIRDRPPRLPRPRPRPLCHPRP | 0.0833
RRIRRRPPRLPRPRPRPTWQPRP | 0.459
RRIRNRPPRLPRPRPRPTWAPRP | 0.374
RRIRQRPPRLPRPRPRPWDAPRP | -0.0479
RRIRMRPPRLPRPRPRPFYPPRP | -0.401
RRIRRRPPRLPRPRPRPNSEPRP | 0.381
